# In patent US20250066499A1 (SUNSHINE GUOJIAN PHARMACEUTICAL SHANGHAI, published 2025):
# T1: CD73-ND-L133A (human, UniProt P21589 27-317)
# T1 construct: Alanine mutant of CD73-ND
# T1 sequence: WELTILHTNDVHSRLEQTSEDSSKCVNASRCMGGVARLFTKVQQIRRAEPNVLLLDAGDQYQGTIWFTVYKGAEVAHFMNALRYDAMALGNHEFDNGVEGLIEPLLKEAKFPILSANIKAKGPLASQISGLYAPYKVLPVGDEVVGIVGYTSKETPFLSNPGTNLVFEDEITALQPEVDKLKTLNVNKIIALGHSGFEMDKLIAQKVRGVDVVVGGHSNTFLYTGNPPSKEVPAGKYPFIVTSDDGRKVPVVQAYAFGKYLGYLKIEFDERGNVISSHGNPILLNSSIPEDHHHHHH
# T2: CD73-ND-Y135A (human, UniProt P21589 27-317)
# T2 construct: Alanine mutant of CD73-ND
# T2 sequence: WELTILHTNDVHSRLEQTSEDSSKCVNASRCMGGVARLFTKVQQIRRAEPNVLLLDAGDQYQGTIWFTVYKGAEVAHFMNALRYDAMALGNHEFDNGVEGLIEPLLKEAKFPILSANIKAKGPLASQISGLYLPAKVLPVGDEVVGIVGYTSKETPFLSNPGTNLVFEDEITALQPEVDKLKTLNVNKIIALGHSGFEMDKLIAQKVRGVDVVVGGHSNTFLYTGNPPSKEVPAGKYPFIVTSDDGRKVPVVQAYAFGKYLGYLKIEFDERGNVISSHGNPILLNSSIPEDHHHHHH
# T3: CD73-ND-K136A (human, UniProt P21589 27-317)
# T3 construct: Alanine mutant of CD73-ND
# T3 sequence: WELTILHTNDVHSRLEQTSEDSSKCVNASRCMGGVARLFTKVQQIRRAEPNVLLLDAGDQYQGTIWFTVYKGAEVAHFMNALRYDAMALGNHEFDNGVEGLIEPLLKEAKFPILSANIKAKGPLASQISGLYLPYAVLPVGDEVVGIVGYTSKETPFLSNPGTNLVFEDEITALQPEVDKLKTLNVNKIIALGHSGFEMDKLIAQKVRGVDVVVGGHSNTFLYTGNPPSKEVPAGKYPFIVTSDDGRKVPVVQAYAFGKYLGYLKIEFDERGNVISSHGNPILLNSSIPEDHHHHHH
# T4: CD73-ND-V137A (human, UniProt P21589 27-317)
# T4 construct: Alanine mutant of CD73-ND
# T4 sequence: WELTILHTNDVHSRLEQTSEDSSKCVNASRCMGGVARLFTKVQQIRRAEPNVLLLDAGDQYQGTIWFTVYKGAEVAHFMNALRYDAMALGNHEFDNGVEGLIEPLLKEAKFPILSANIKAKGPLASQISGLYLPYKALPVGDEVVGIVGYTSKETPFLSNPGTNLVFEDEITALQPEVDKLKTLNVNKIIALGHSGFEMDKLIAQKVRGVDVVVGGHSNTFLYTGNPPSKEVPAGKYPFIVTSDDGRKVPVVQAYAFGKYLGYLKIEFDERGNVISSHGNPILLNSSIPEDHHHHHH
# T5: CD73-ND-P134A (human, UniProt P21589 27-317)
# T5 construct: Alanine mutant of CD73-ND
# T5 sequence: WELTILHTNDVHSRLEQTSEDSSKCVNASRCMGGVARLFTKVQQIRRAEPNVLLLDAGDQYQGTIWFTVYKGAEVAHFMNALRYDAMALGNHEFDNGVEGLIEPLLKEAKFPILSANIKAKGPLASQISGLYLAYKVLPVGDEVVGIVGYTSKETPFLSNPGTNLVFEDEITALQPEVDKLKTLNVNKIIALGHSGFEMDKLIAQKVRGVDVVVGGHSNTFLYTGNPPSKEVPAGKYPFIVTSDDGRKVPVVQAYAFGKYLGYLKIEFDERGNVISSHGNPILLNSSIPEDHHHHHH
# T6: CD73-ND-his (human, UniProt P21589 27-317)
# T6 construct: Biotinylated and captured on streptavidin in the ELISA
# T6 sequence: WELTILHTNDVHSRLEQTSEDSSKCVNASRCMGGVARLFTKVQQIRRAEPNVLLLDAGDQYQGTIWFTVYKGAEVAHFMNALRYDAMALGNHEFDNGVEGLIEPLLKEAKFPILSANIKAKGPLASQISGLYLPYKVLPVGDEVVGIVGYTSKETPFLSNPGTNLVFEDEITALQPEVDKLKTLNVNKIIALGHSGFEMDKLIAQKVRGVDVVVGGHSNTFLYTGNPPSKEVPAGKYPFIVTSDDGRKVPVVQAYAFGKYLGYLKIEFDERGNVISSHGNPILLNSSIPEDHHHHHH
# Key:
# Test in all cases: ELISA, biotinylated antigen on streptavidin plate
# CD73-ND-L133A = molecular target: T1, CD73-ND-L133A
# Protocol: (§1) The ELISA plates were coated with SA protein diluted to 1.5 μg/mL in coating buffer (50 mM carbonate coating buffer, pH 9.6) and incubated overnight at 4° C. The supernatant was discarded, and the plates were washed three times with PBST. Then, 5% skimmed milk powder prepared with PBS was added for blocking and the plates were incubated for 2 h at 37° C. After washing the plates once with PBST, CD73-biotin protein (prepared by biotinylating CD73-His protein according to the EZ-Link NHS-Biotin Reagent instructions) was diluted to 0.5 μg/mL and added at 100 μL/well for incubation at room temperature for 1 h. The plates were washed three times with PBST, and the prepared murine-derived monoclonal antibodies against human CD73 were serially diluted with 1% BSA buffer prepared with PBST and added to the ELISA plates at 100 μl/well. The plates were incubated at 37° C. for 1 h. After washing the plates three times with PBST, HRP-labeled goat anti-mouse IgG secondary antibody was added and the plates were incubated for 30 min at 37° C. After washing the plates three times with PBST, the residual droplets were patted dry on absorbent paper as much as possible. Then, 100 μl of TMB color developing solution was added to each well, and the plates were incubated in the dark at room temperature for 5 min for color development. Subsequently, 50 μl of 2M H₂SO₄ stop solution was added to each well to terminate the substrate reaction. The OD values were read at 450 nm using a multimode microplate reader to analyze the binding ability of the tested antibodies to the target antigen human CD73-His.
# (§2) Referring to the experimental method in Example 3, the affinity of 48A11-HuV33 for various mutant proteins of CD73-ND was determined. The SA protein was diluted to 1 μg/mL for coating the ELISA plates, and the biotinylated CD73 protein (CD73-biotin) was used at a concentration of 0.1 μg/mL.
# CD73-ND-Y135A = molecular target: T2, CD73-ND-Y135A
# Protocol: as §1, §2
# CD73-ND-K136A = molecular target: T3, CD73-ND-K136A
# Protocol: as §1, §2
# CD73-ND-V137A = molecular target: T4, CD73-ND-V137A
# Protocol: as §1, §2
# CD73-ND-P134A = molecular target: T5, CD73-ND-P134A
# Protocol: as §1, §2
# CD73-ND-his = molecular target: T6, CD73-ND-his
# Protocol: as §1, §2
binder,measurement,setting,value
"48A11-HuV33 (antibody, human IgG4, V domains shown, Humanized) VH: QVQLVQSGAEVKKPGASVKVSCKASGYTFTSYWMHWVRQAPGQGLEWIGEINPSIGRTNYNEKFKSRVTLTRDTSTSTAYMELSSLRSEDTAVYYCARRVYGTMDYWGQGTLVTVSS VL: DIQMTQSPSSLSASVGDRVTITCKASQDINSYLSWFQQKPGKSPKLLIYRANIWVDGVPSRFSGSGSGQDYTFTISSLQPEDIATYYCLQYDELYTFGQGTKVEIK",EC50,CD73-ND-L133A,25.8 nM
same,EC50,CD73-ND-Y135A,0.165 nM
same,EC50,CD73-ND-K136A,0.145 nM
same,EC50,CD73-ND-V137A,0.891 nM
same,EC50,CD73-ND-P134A,0.205 nM
same,EC50,CD73-ND-his,0.152 nM
